T1: AT4G35510.1 TRBIP1 (Arabidopsis thaliana)
T1 construct: Endogenous protein found by mass spectrometry
T1 chain: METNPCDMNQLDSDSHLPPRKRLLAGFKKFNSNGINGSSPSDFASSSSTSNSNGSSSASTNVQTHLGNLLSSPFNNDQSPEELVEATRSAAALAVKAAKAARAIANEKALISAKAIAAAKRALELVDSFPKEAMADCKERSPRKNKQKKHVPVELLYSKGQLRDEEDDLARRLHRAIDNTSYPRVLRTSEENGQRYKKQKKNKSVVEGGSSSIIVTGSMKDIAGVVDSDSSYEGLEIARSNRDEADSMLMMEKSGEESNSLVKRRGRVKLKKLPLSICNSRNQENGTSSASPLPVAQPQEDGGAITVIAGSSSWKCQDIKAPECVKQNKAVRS

T2: AT2G17540.2 TRBIP2 (Arabidopsis thaliana)
T2 construct: Endogenous protein found by mass spectrometry
T2 chain: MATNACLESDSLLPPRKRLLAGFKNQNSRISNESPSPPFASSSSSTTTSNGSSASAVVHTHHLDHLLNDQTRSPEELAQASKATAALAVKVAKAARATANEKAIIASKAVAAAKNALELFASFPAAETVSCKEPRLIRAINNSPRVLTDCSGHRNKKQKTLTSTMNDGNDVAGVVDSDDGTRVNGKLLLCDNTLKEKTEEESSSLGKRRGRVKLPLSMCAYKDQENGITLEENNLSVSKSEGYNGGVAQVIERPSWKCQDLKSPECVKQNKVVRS

T3: AT2G23380.1 CLF (Arabidopsis thaliana, UniProt P93831 1-902)
T3 construct: Endogenous protein found by mass spectrometry; also called CURLY LEAF
T3 sequence (looked up): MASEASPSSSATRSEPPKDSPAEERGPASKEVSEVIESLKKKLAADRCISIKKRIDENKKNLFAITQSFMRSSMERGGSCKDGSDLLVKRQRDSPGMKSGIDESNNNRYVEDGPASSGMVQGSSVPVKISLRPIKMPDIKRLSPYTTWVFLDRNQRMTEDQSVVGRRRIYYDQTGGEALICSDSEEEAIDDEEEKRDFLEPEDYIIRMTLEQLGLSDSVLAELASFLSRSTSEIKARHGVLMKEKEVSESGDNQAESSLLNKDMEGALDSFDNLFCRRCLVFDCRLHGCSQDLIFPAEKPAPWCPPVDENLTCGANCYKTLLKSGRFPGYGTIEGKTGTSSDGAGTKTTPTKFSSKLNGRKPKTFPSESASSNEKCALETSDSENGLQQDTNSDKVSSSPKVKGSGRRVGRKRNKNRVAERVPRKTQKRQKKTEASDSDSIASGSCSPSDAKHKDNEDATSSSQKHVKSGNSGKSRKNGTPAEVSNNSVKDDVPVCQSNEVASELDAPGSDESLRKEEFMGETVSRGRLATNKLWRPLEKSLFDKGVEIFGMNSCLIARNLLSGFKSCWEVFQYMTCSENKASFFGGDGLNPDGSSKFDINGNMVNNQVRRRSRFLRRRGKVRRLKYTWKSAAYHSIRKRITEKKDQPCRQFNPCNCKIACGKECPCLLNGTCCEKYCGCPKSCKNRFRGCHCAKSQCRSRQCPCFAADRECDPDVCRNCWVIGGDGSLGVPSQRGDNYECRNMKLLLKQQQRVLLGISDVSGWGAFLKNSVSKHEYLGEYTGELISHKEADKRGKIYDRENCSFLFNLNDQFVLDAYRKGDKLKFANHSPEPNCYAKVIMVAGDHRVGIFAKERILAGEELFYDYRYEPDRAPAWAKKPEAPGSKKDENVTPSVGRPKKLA

T4: AT5G51230.1 EMF2 (Arabidopsis thaliana, UniProt Q8L6Y4 1-631)
T4 construct: Endogenous protein found by mass spectrometry; also called EMBRYONIC FLOWER 2
T4 sequence (looked up): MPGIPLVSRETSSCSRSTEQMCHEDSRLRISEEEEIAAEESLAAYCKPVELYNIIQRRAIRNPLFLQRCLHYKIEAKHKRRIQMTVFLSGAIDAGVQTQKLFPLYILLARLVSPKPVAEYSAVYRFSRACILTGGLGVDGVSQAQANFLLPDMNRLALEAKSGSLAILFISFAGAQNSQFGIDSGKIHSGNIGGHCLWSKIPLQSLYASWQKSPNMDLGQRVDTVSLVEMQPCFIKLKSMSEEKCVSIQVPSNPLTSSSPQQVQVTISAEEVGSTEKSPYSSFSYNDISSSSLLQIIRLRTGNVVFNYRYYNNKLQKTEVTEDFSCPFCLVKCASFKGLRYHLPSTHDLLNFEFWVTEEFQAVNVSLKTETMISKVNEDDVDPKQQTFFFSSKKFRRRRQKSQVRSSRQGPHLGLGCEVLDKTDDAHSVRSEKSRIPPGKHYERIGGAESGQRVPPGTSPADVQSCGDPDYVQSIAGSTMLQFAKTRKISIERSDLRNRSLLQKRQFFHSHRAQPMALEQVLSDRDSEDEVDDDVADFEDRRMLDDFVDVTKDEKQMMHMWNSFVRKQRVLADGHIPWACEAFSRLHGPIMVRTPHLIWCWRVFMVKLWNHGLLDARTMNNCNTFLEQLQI

T5: AT3G49850.1 TRB3 (Arabidopsis thaliana, UniProt Q9M2X3 1-295)
T5 construct: Endogenous protein found by mass spectrometry
T5 sequence: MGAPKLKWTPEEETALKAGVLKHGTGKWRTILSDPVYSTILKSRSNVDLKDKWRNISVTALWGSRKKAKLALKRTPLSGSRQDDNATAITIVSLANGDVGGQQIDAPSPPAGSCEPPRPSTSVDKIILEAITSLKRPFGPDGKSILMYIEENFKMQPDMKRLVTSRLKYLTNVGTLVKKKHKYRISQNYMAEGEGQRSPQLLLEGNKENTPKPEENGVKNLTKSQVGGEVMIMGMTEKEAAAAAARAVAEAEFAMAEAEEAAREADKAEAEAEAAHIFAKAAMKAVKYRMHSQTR


Experiments:
[1] = biological target: T6, AT4G20400.1 JMJ14 (Arabidopsis thaliana, UniProt Q8GUI6 1-954); assay: IP-MS rep 2
T6 construct: Endogenous protein found by mass spectrometry; also called JUMONJI 14
T6 sequence (Q8GUI6 whole entry): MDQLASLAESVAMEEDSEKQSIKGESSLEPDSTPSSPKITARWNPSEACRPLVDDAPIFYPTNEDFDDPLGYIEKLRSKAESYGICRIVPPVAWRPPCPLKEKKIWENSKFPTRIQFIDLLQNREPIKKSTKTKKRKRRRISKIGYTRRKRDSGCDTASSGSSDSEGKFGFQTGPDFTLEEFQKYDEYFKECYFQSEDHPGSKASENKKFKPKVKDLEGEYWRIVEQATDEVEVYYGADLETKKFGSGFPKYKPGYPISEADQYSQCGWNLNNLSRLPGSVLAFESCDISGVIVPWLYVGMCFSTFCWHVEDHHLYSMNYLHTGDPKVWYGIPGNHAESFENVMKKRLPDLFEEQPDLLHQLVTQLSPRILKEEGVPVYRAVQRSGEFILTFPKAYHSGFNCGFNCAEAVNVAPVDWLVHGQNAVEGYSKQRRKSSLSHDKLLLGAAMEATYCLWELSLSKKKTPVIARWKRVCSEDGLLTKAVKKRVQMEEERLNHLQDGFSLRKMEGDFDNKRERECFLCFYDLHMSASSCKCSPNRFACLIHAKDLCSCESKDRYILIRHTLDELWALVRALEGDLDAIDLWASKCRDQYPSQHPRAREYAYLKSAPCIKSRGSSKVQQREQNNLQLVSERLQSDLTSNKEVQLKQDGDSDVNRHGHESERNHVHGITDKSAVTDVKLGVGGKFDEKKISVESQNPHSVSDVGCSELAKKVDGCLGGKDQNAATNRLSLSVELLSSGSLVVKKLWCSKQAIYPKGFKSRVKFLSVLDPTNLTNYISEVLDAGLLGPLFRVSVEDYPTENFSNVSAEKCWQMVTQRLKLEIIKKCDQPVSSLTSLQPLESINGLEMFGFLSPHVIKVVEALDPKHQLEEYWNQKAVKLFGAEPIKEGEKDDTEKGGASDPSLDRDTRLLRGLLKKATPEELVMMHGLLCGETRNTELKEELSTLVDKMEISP
Protocol: (§1) The method of IP-MS used in this Example has been described in a recent paper (see e.g., Xue, Nat. Comm., 2021). Ten grams of unopened floral buds from Col-0 wild type and FLAG-tag transgenic plants, including PHD1, MOM1, AIPP3, MOM2, MORC6, PIAL2, TRB1, TRB2, TRB3, JMJ14, HD2A, HD2B, and ELF7 were collected and ground into fine powder with liquid nitrogen. These samples were resuspended with 25 mL IP buffer and homogenized until lump-free by dounce homogenizer. The lysate was filtered through Miracloth and incubated with 250 μL anti-FLAG M2 magnetic beads (Sigma) at 4° C. for 2 hours. The magnetic beads were washed with IP buffer and eluted with TBS containing 250 μg/mL 3×FLAG peptides. The eluted proteins were precipitated with trichloroacetic acid (Sigma) and subject to MS analyses as described previously (see e.g., Xue, Nat. Comm., 2021).

[2] = biological target: T1, AT4G35510.1 TRBIP1; assay: IP-MS rep 2
Protocol: as §1

[3] = biological target: T2, AT2G17540.2 TRBIP2; assay: IP-MS rep 2
Protocol: as §1

[4] = biological target: T6, AT4G20400.1 JMJ14; assay: IP-MS rep 1
Protocol: as §1

[5] = biological target: T1, AT4G35510.1 TRBIP1; assay: IP-MS rep 1
Protocol: as §1

[6] = biological target: T2, AT2G17540.2 TRBIP2; assay: IP-MS rep 1
Protocol: as §1

[7] = biological target: T6, AT4G20400.1 JMJ14; assay: X-link IP-MS
[8] = biological target: T1, AT4G35510.1 TRBIP1; assay: X-link IP-MS
[9] = biological target: T2, AT2G17540.2 TRBIP2; assay: X-link IP-MS
[10] = biological target: T3, AT2G23380.1 CLF; assay: IP-MS rep 2
Protocol: as §1

[11] = biological target: T4, AT5G51230.1 EMF2; assay: IP-MS rep 2
Protocol: as §1

[12] = biological target: T5, AT3G49850.1 TRB3; assay: IP-MS rep 2
Protocol: as §1

[13] = biological target: T3, AT2G23380.1 CLF; assay: IP-MS rep 1
Protocol: as §1

[14] = biological target: T4, AT5G51230.1 EMF2; assay: IP-MS rep 1
Protocol: as §1

[15] = biological target: T5, AT3G49850.1 TRB3; assay: IP-MS rep 1
Protocol: as §1

[16] = biological target: T3, AT2G23380.1 CLF; assay: X-link IP-MS
[17] = biological target: T4, AT5G51230.1 EMF2; assay: X-link IP-MS
[18] = biological target: T5, AT3G49850.1 TRB3; assay: X-link IP-MS

IP-MS count [1]	IP-MS count [2]	IP-MS count [3]	IP-MS count [4]	IP-MS count [5]	IP-MS count [6]	IP-MS count [7]	IP-MS count [8]	IP-MS count [9]	IP-MS count [10]	IP-MS count [11]	IP-MS count [12]	IP-MS count [13]	IP-MS count [14]	IP-MS count [15]	IP-MS count [16]	IP-MS count [17]	IP-MS count [18]	Binder
4	22	10	3	22	10	78	16	7										FLAG-TRB2 (other, not shown: small tags and cut ends, FLAG-tagged TRB2 from its native promoter; tag position under the label FLAG-TRB2 not certain; also called TRB2-FLAG; TRB-FLAG) MGAPKQKWTPEEEAALKAGVLKHGTGKWRTILSDSEFSLILKSRSNVDLKDKWRNISVTALWGSRKKAKLALKRTPPGTKQDDNNTALTIVALTNDDERAKPTSPGGSGGGSPRTCASKRSITSLDKIIFEAITNLRELRGSDRTSIFLYIEENFKTPPNMKRHVAVRLKHLSSNGTLVKIKHKYRFSSNFIPAGARQKAPQLFLEGNNKKDPTKPEENGANSLTKFRVDGELYMIKGMTAQEAAEAAARAVAEAEFAITEAEQAAKEAERAEAEAEAAQIFAKAAMKALKFRIRNHPW
	11	22		5	18		0	0	0	0	0	0	0	0	0	0	0	FLAG-TRB1 (other, not shown: small tags and cut ends, FLAG-tagged TRB1 from its native promoter in the trb1 mutant background; Printed both as TRB-FLAG and FLAG-TRB1; the vector description gives a C-terminal 3xFLAG-BLRP, so the tag position under the label FLAG-TRB1 is not certain; also called TRB1-FLAG; TRB-FLAG) MGAPKQKWTQEEESALKSGVIKHGPGKWRTILKDPEFSGVLYLRSNVDLKDKWRNMSVMANGWGSREKSRLAVKRTFSLPKQEENSLALTNSLQSDEENVDATSGLQVSSNPPPRRPNVRLDSLIMEAIATLKEPGGCNKTTIGAYIEDQYHAPPDFKRLLSTKLKYLTSCGKLVKVKRKYRIPNSTPLSSHRRKGLGVFGGKQRTSSLPSPKTDIDEVNFQTRSQIDTEIARMKSMNVHEAAAVAAQAVAEAEAAMAEAEEAAKEAEAAEAEAEAAQAFAEEASKTLKGRNICKMMIRA

— US20250042956A1 (University of California, published 2025)
